According to the supplement of paper PMC9732359:
± gives the uncertainty stated by the source.

Test: protein stability index of a GFP-peptide fusion (yeast GPS) (PSI 1-4); higher = more stable; sorted into four equal gates, so the index is relative within each strain
Method in brief: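 Tiled yeast protein peptides of 17 residues were each joined downstream of GFP, on plasmids that also express Cherry. The pooled library was maintained in yeast, and mid-log cultures in leucine-free medium were sorted into four equal gates on the GFP/Cherry ratio. Plasmids from every gate were amplified by PCR and sequenced on Illumina, with barcodes linking reads to strains. The protein stability index of a peptide is its gate-number-weighted read frequency summed over the gates.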

Sequence	protein stability index (pdr5∆)	protein stability index (ubr1∆)	protein stability index (doa10∆)	protein stability index (san1∆)
KIMQEATQSGGVRPFGV [PRE8]	2.45 ± 0.29	2.95 ± 0.1		
QLDLCKLYFQLFLNTGC [SRP68]	1.4 ± 0.042	1.7 ± 0.037	2.01 ± 0.038	1.45 ± 0.092
VSLGTSIMAVTFKDGVI [PRE3]	3.12 ± 0.18	3.6 ± 0.074	3.55 ± 0.12	3.27 ± 0.075
AFSYPRMYEEASGKEVE [RPN2]	1.34 ± 0.082	1.35 ± 0.059	2.66 ± 0.09	1.28 ± 0.11
LRRVEERFTKSKTLSLI [FAS1]	2.09 ± 0.059	1.79 ± 0.037	2.31 ± 0.076	2.17 ± 0.087
TLIDLVKHSPGAIKPFT [ECM29]	2.93 ± 0.15	2.92 ± 0.099	2.16 ± 0.2	1.95 ± 0.2
QKNDTAAFKDIAKRQFK [RRP40]	3.33 ± 0.12	3.35 ± 0.058	2.95 ± 0.093	2.76 ± 0.068
ILEEKTDLHLPKKEYDD [NSL1]	2.39 ± 0.12	2.66 ± 0.061	1.76 ± 0.057	2.21 ± 0.12
TEAEETSIHSTISILAA [RRP43]	1.63 ± 0.045	1.37 ± 0.035	1.28 ± 0.043	1.77 ± 0.068
GAIILTKMDGHARGGGA [SRP54]	3.13 ± 0.16		2.88 ± 0.24	2.95 ± 0.13
SILRKSSPEEPFMSYSP [SNF12]	2.74 ± 0.075	2.79 ± 0.059	2.64 ± 0.074	2.55 ± 0.088
DRTQDRADVEDESNDID [RPC37]	3.52 ± 0.092	3.4 ± 0.073	3.33 ± 0.087	3.13 ± 0.11
FAISMGYLFKVSALDKC [ECM29]	1.67 ± 0.21	2.13 ± 0.13		1.91 ± 0.23
SLDAREANFDLINIDTS [RPC40]	3.22 ± 0.066	3.04 ± 0.071	3.5 ± 0.078	3.18 ± 0.058
ISKRKEELEEEFRKKLK [YIL149C/MLP2]	3.35 ± 0.1	3.67 ± 0.11	3.49 ± 0.11	3.06 ± 0.089
APQVYIITKNENFLKEV [GAL11]		3.5 ± 0.19	3.37 ± 0.24	
MRRFILGTTEGDIKVLD [RPN14]		1.25 ± 0.18		
EKKDSGSSKPAFSFGAK [YJL041W/NSP1]	3.26 ± 0.098	3.35 ± 0.051	3.32 ± 0.1	3.08 ± 0.073
VFFDDDPLYDITKVPAL [REC8]	2.92 ± 0.082	2.88 ± 0.055	2.47 ± 0.063	2.7 ± 0.065
MGEAQTGANFDDVERGV [REC8]	2.98 ± 0.11	3.24 ± 0.081	3.37 ± 0.093	3.52 ± 0.17
QPHIFNNPKVKTSKRTK [RPS11A]	2.81 ± 0.061	2.36 ± 0.031	2.95 ± 0.052	2.98 ± 0.091
LTLQEDYIKDEQRHLKR [RPT3]	3.18 ± 0.081	3.32 ± 0.07	3.43 ± 0.11	3.14 ± 0.085
KLSEIILNINNSTSKNT [SWI1]	2.92 ± 0.077	3.01 ± 0.062	2.96 ± 0.067	2.74 ± 0.1
QKRNAHGYFLQDKEKID [ITC1]	3.38 ± 0.071	3.42 ± 0.056	3.32 ± 0.098	3.28 ± 0.048
VKSEVDVQVDAEEKREA [ITC1]	2.97 ± 0.21	3.16 ± 0.11	3.22 ± 0.17	3.12 ± 0.23
DMFEMSDEEENNNNKSI [SSN2]	3.19 ± 0.18	3.04 ± 0.079		3.32 ± 0.17
FGKTVKDGPFYTGSMSL [RPC31]	3.17 ± 0.11	2.98 ± 0.1	2.92 ± 0.15	2.81 ± 0.086

Sequence	protein stability index (pdr5∆)	protein stability index (ubr1∆)	protein stability index (doa10∆)	protein stability index (san1∆)
LNLDSEQTVEYMVSRAI [RPN3]	3.22 ± 0.3	2.83 ± 0.11	3.32 ± 0.23	2.93 ± 0.25
RQMKDVNAPLPTPFKVD [RPN2]	3.04 ± 0.066	2.86 ± 0.053	3.07 ± 0.079	2.79 ± 0.064
EKRYDDKLLDFIRYDVK [CSN12]	3.25 ± 0.066	3.17 ± 0.066	3.3 ± 0.063	3.22 ± 0.046
PQYNMNMGMNNMNNGGK [PGD1]	3.48 ± 0.19	3.24 ± 0.083	3.42 ± 0.21	3.16 ± 0.11
ENFAKGEHISAIVPGQS [SWP82]	3.18 ± 0.085	3.05 ± 0.055	3.01 ± 0.064	2.87 ± 0.06
YLINGKRFKRKDNAKIS [SRP68]	1.58 ± 0.096	1.63 ± 0.049	1.36 ± 0.075	1.75 ± 0.12
TPEKDLFIGLFTRPLFV [YCS4]	1.32 ± 0.079	1.45 ± 0.096	1.54 ± 0.084	1.96 ± 0.27
EGDFLKSIIGKLTAERA [POP1]	3.23 ± 0.082	3.03 ± 0.12	1.63 ± 0.14	2.1 ± 0.11
PNTTKTKLRAFVYNKVN [YGR119C/NUP57]			2.47 ± 0.21	
VTKDLKLRREDEIIVYA [REC8]	2.73 ± 0.05	2.96 ± 0.044	2.8 ± 0.069	3.18 ± 0.056
IALNLASKKFGKICLIL [SSN2]	2.83 ± 0.062	3.12 ± 0.061	2.41 ± 0.11	2.9 ± 0.071
YSPIEKESPWKILMYQY [RRP6]	1.89 ± 0.062	1.44 ± 0.054	1.75 ± 0.063	1.35 ± 0.11
YLQETAISGKKTTYYYY [RPC82]	3.02 ± 0.14	3.07 ± 0.075	2.77 ± 0.079	2.84 ± 0.057
ANLEDIIFEIEKPLVVP [RRP6]	2.79 ± 0.094	2.03 ± 0.11	2 ± 0.085	2.62 ± 0.08
YSNEPFNTNFDDEFGDL [SNF6]	3 ± 0.093	3.06 ± 0.042	3.02 ± 0.1	2.99 ± 0.059
GAKFENIVHNFKERQMM [AAR2]	2.71 ± 0.096	3.04 ± 0.11	3.32 ± 0.081	2.76 ± 0.089
QEPELSLDQGDAEEDSQ [SMC4]		3.02 ± 0.14	3.45 ± 0.16	
GTFKSTLDREYITLKAT [QCR2]	1.44 ± 0.044	1.49 ± 0.047	1.39 ± 0.065	1.51 ± 0.099
NVSIVANYIKERTKNAQ [SMC4]	3.14 ± 0.065	3.18 ± 0.061	3.02 ± 0.12	2.91 ± 0.05
AFDLDGTGKSQSGSNSG [ROX3]	2.71 ± 0.2	3.42 ± 0.23	3.44 ± 0.25	
VDDSMELCGQIRSERFK [ITC1]	3 ± 0.067	2.94 ± 0.13	2.84 ± 0.072	3.28 ± 0.086
LFKYQGHIGAYLIVAGV [PUP1]	2.04 ± 0.06	2.53 ± 0.055	1.66 ± 0.067	1.39 ± 0.12
LGQLYVTMGAKDKLREF [RPN6]	3.13 ± 0.11	3.12 ± 0.069	3.33 ± 0.12	3.08 ± 0.078
ALTKFEASQVTEKQRKK [RPL35A]	2.57 ± 0.1	3.17 ± 0.061	3.2 ± 0.27	3.1 ± 0.064
SADYEILYEIRALYTPF [YDL116W/NUP84]	2.21 ± 0.068	2.06 ± 0.066	1.86 ± 0.073	2.5 ± 0.07
EIGGSDLKESMVKGLLK [ECM29]	3.53 ± 0.16	2.76 ± 0.21	2.63 ± 0.23	
